According to patent US20040180360, “Multivalent aptamer therapeutics with improved pharmacodynamic properties and methods of making and using the same” (published 2004):

Key:
PDGF-BB [1] = biological target: T1, PDGF-BB (UniProt P01127 P01127:82-190); assay: 10 or 100 nM splint DNA enhances affinity of bidentate aptamer; conditions: chain copies: 2 (inferred, homodimer); linker region hybridised to 40-nt splint oligonucleotide
Description: (§1) High molecular weight aptamer compositions capable of binding to platelet derived growth factor (PDGF) were produced using the following methods. A dimeric, or bidentate PDGF aptamer having the sequence shown in FIG. 4(A) was synthesized using standard reagents (oligonucleotides supplied by Integrated DNA Technologies, Coralville, Iowa). As shown in FIG. 4(B), the enhanced affinity of the bidentate aptamer to its target (either PDGF BB or AB) was greatest at higher protein concentrations where the binding conditions were 25° C. in 1×PBS with an RNA ligand concentration of <10 pM. […] This enhancement could reflect a splint-dependent reduction in rotational degrees of freedom within the linker region, leading to an increase in the effective concentration of the bidentate ligand. The addition of splint DNA to the monovalent aptamer to PDGF-BB had no effect on binding affinity (FIG. 5).

PDGF-AB = PDGF-AB (UniProt P04085;P01127 P04085:87-211,P01127:82-190); assay: enhanced affinity stated for PDGF BB or AB; 1x PBS, 25 C, ligand <10 pM
Sequence of PDGF-AB (P01127 82-190, chain 2 of 2, other chains not shown): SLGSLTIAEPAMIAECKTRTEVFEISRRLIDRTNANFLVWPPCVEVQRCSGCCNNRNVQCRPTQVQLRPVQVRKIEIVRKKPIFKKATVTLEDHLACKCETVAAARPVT
Description: as §1

PDGF-BB [2] = biological target: T1, PDGF-BB; assay: enhanced affinity vs monomer, greatest at higher protein concentration; 1x PBS, 25 C, ligand <10 pM; conditions: chain copies: 2 (inferred, homodimer)
Description: as §1

TGFβ2 = biological target: T2, TGFβ2 (UniProt P61812 P61812:303-414); assay: competition; monodentate control with 5-bp extension; competes similarly to bidentates with linkers of 30 nt or more; conditions: chain copies: 2 (inferred, homodimer)
T2 sequence: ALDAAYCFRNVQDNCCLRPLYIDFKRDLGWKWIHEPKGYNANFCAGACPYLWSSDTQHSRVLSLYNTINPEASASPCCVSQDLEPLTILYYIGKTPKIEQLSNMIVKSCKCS

T1 sequence (P01127 82-190, one chain of several): as the sequence (P01127 82-190, chain 2 of 2, other chains not shown) above

B1: PDGF bidentate aptamer + splint DNA (structured_DNA)
DNA 1: TACTCAGGGCACTGCAAGCAATTGTGGTCCCAATGGGCTGAGTATGTGGTCTATGTCGTCGTTCGCTAGTAGTTCCTGGGCTGCACTCGAGGCGTAGAATTCCCCCGATGCGCGCTGTTCTTACTCAGGGCACTGCAAGCAATTGTGGTCCCAATGGGCTGAGTAT
DNA 2: AAAGGAATTCTACGCCTCGAGTGCAGCCCAGGAACTATTT
B1: binds (PDGF-BB [1]).

B2: PDGF bidentate aptamer (ssDNA)
DNA: TACTCAGGGCACTGCAAGCAATTGTGGTCCCAATGGGCTGAGTATGTGGTCTATGTCGTCGTTCGCTAGTAGTTCCTGGGCTGCACTCGAGGCGTAGAATTCCCCCGATGCGCGCTGTTCTTACTCAGGGCACTGCAAGCAATTGTGGTCCCAATGGGCTGAGTAT
B2: binds (PDGF-AB); binds (PDGF-BB [2]).

GCGCCGAGGUUAUUACAGAGUCUGUAUAGCUGUACUCGGCGC (ssRNA, 2'-F pyrimidines (inferred)) [ARC77 with 5-bp terminal extension]: binds (TGFβ2).
